Laboratory results published in publication PMC2171419 (The Journal of Cell Biology, 2005).

T1: GST–14-3-3ζ Ser184A (UniProt P63104 1-245, Ser184A)
T1 sequence (looked up): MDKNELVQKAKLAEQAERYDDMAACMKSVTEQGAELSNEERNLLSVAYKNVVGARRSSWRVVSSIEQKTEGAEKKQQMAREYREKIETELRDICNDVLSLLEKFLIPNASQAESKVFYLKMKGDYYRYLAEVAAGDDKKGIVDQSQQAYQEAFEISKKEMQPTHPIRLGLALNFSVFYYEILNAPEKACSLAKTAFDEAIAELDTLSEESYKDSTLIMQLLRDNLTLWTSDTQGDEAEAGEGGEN

T2: GST–14-3-3ζ (WT) (UniProt P63104 1-245)
T2 sequence (looked up): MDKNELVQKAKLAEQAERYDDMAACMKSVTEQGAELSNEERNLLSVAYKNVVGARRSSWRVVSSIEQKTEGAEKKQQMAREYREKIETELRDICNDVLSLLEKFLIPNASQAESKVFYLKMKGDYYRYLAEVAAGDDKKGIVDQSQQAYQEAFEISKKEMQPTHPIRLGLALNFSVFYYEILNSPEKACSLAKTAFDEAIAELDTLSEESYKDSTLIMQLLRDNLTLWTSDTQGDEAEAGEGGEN


Experiments:
GST–14-3-3ζ Ser184A = target: T1, GST–14-3-3ζ Ser184A; test: pull-down
GST–14-3-3ζ (WT) = target: T2, GST–14-3-3ζ (WT); test: pull-down

Binder	binding result (GST–14-3-3ζ Ser184A)	binding result (GST–14-3-3ζ (WT))
His-tagged Bad wild type, phosphorylated by CA-Akt (natural protein, mouse, UniProt Q61337 1-204, looked up, phosphoserine at 136 (by CA-Akt in vitro)) MGTPKQPSLAPAHALGLRKSDPGIRSLGSDAGGRRWRPAAQSMFQIPEFEPSEQEDASATDRGLGPSLTEDQPGPYLAPGLLGSNIHQQGRAATNSHHGGAGAMETRSRHSSYPAGTEEDEGMEEELSPFRGRSRSAPPNLWAAQRYGRELRRMSDEFEGSFKGLPRPKSAGTATQMRQSAGWTRIIQSWWDRNLGKGGSTPSQ	binds	
His-tagged Bad Ser128A-Thr201A, phosphorylated by active Akt (natural protein, mouse, UniProt Q61337 1-204, looked up, phosphoserine at 136 (by CA-Akt in vitro)) MGTPKQPSLAPAHALGLRKSDPGIRSLGSDAGGRRWRPAAQSMFQIPEFEPSEQEDASATDRGLGPSLTEDQPGPYLAPGLLGSNIHQQGRAATNSHHGGAGAMETRSRHSSYPAGTEEDEGMEEELAPFRGRSRSAPPNLWAAQRYGRELRRMSDEFEGSFKGLPRPKSAGTATQMRQSAGWTRIIQSWWDRNLGKGGSAPSQ		binds

Continued, values first:

binding result (GST–14-3-3ζ Ser184A)	binding result (GST–14-3-3ζ (WT))	Binder
	binds	His-tagged Bad Ser128A, phosphorylated by active Akt (natural protein, mouse, UniProt Q61337 1-204, looked up, phosphoserine at 136 (by CA-Akt in vitro)) MGTPKQPSLAPAHALGLRKSDPGIRSLGSDAGGRRWRPAAQSMFQIPEFEPSEQEDASATDRGLGPSLTEDQPGPYLAPGLLGSNIHQQGRAATNSHHGGAGAMETRSRHSSYPAGTEEDEGMEEELAPFRGRSRSAPPNLWAAQRYGRELRRMSDEFEGSFKGLPRPKSAGTATQMRQSAGWTRIIQSWWDRNLGKGGSTPSQ
	binds	His-tagged Bad Thr201A, phosphorylated by active Akt (natural protein, mouse, UniProt Q61337 1-204, looked up, phosphoserine at 136 (by CA-Akt in vitro)) MGTPKQPSLAPAHALGLRKSDPGIRSLGSDAGGRRWRPAAQSMFQIPEFEPSEQEDASATDRGLGPSLTEDQPGPYLAPGLLGSNIHQQGRAATNSHHGGAGAMETRSRHSSYPAGTEEDEGMEEELSPFRGRSRSAPPNLWAAQRYGRELRRMSDEFEGSFKGLPRPKSAGTATQMRQSAGWTRIIQSWWDRNLGKGGSAPSQ
